Patent publication US20220177587A1, “METHODS AND USES OF VARIANT CD80 FUSION PROTEINS AND RELATED CONSTRUCTS” (Alpine Immune Sciences, Inc., priority 2018, published 2022)
Read-outs that look alike come from different tables or passages of the source.

Experiments:
CD28 (human) [1] = target: CD28 (human) (UniProt P10747)
PD-L1 (human) [2] = target: PD-L1 (human) (UniProt Q9NZQ7)
human CTLA-4 (human) = human CTLA-4 (human) (UniProt P16410); test: flow cytometry, CHO cells expressing CTLA4
PD-L1 (human) [3] = target: PD-L1 (human) (UniProt Q9NZQ7); test: flow cytometry, CHO cells expressing PD-L1
CD28 (human) [4] = target: CD28 (human) (UniProt P10747); test: flow cytometry, Jurkat cells (CD28)
CD28 (human) [5] = target: CD28 (human) (UniProt P10747); remark: listed apart in the source
PD-L1 (human) [6] = target: PD-L1 (human) (UniProt Q9NZQ7); remark: listed apart in the source

Sequence of human CTLA-4 (human) (P16410 36-223): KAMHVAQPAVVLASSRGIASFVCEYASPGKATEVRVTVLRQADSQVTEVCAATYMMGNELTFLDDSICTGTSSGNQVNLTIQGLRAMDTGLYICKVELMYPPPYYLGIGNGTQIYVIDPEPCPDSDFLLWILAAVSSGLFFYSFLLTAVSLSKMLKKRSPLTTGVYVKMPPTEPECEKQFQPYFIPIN
Sequence of PD-L1 (human) (Q9NZQ7 19-290): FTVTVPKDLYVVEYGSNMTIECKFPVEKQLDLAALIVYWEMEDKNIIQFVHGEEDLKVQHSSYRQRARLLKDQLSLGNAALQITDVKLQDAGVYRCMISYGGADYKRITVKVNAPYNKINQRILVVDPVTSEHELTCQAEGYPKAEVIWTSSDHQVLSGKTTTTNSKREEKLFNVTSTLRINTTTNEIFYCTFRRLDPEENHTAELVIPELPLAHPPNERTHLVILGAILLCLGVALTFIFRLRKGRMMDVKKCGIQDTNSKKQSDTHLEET

Substance | Jurkat/IL2 reporter RLU at 50 nM, K562/OKT3/PD-L1 aAPC (CD28 (human) [1]) | Jurkat/IL2 reporter RLU at 50 nM, K562/OKT3/PD-L1 aAPC (PD-L1 (human) [2]) | other results
CD80 H18Y/A26E/E35D/M47L/L85Q/D90G IgV-Fc (inert) (Fc fusion) | 1510 RLU | 1510 RLU | –
CD80 E35D/T41S/M47V/A71G/K89N IgV-Fc (inert) (Fc fusion) | 1020 RLU | 1020 RLU | –
CD80 E35D/T41S/M43I/M47V/A71G IgV-Fc (inert) (Fc fusion) | 1270 RLU | 1270 RLU | –
CD80 H18Y/V22A/E35D/M47V/T62S/A71G IgV-Fc (inert) (Fc fusion) | 1380 RLU | 1380 RLU | –
CD80 I30V/E35D/M47V/A71G/A91V IgV-Fc (inert) (Fc fusion) | 1500 RLU | 1500 RLU | –
CD80 E35D/M47V/A71G/E88D IgV-Fc (inert) (Fc fusion) | 1220 RLU | 1220 RLU | –
CD80 V22D/E35D/M47L/L70M/L97Q IgV-Fc (inert) (Fc fusion) | 1540 RLU | 1540 RLU | –
CD80 V22D/E35D/M47L/L85Q IgV-Fc (inert) (Fc fusion) | 1140 RLU | 1140 RLU | –
CD80 H18Y/E35D/M47L/V68M/A71G/L85M IgV-Fc (Fc fusion) | – | – | MFI at 33.3 nM (human CTLA-4 (human)): 19500 MFI; MFI at 33.3 nM (PD-L1 (human) [3]): 18700 MFI
CD80 S21P/E35D/K37E/D46E/M47I/V68M IgV-Fc (Fc fusion) | – | – | MFI at 33.3 nM (CD28 (human) [4]): 540 MFI; MFI at 33.3 nM (human CTLA-4 (human)): 20600 MFI
CD80 E35D/M47L/A71G/L85M/F92Y IgV-Fc (inert) (Fc fusion) | 1320 RLU | 1320 RLU | –
CD80 E35D/D46V/M47L/V68M/L85Q/E88D IgV-Fc (inert) (Fc fusion) | 1460 RLU | 1460 RLU | –
CD80 E35D/T41S/M43I/M47L/A71G IgV-Fc (inert) (Fc fusion) | 1540 RLU | 1540 RLU | –
CD80 E35D/A71G IgV-Fc (inert) (Fc fusion) | 1190 RLU | 1190 RLU | –
CD80 Q27H/E35D/M47I/L85Q/D90G IgV-Fc (inert) (Fc fusion) | 1310 RLU | 1310 RLU | –
CD80 S21P/E35D/K37E/D46E/M47I/V68M/R94L IgV-Fc (Fc fusion) | – | – | MFI at 33.3 nM (CD28 (human) [4]): 284 MFI; MFI at 33.3 nM (human CTLA-4 (human)): 20100 MFI
CD80 E35D/M47V/N48T/L85Q IgV-Fc (inert) (Fc fusion) | 897 RLU | 897 RLU | –
CD80 E35D/M38T/M43V/M47V/N48R/L85Q IgV-Fc (inert) (Fc fusion) | 680 RLU | 680 RLU | –
CD80 H18Y/Q33L/E35D/M47I IgV-Fc (inert) (Fc fusion) | – | – | Jurkat/IL2 reporter RLU at 50 nM, K562/OKT3/PD-L1 aAPC (CD28 (human) [5]): 486 RLU; Jurkat/IL2 reporter RLU at 50 nM, K562/OKT3/PD-L1 aAPC (PD-L1 (human) [6]): 486 RLU
CD80 V22A/E35D/V68E/A71D IgV-Fc (inert) (Fc fusion) | – | – | Jurkat/IL2 reporter RLU at 50 nM, K562/OKT3/PD-L1 aAPC (CD28 (human) [5]): 538 RLU; Jurkat/IL2 reporter RLU at 50 nM, K562/OKT3/PD-L1 aAPC (PD-L1 (human) [6]): 538 RLU
CD80 Q33R/E35D/M47V/N48K/L85M/F92L IgV-Fc (inert) (Fc fusion) | 215 RLU | 215 RLU | –
CD80 V22A/R29H/E35D/D46E/M47I IgV-Fc (inert) (Fc fusion) | – | – | Jurkat/IL2 reporter RLU at 50 nM, K562/OKT3/PD-L1 aAPC (CD28 (human) [5]): 3310 RLU; Jurkat/IL2 reporter RLU at 50 nM, K562/OKT3/PD-L1 aAPC (PD-L1 (human) [6]): 3310 RLU
CD80 A26E/Q33R/E35D/M47L/L85Q IgV-Fc (inert) (Fc fusion) | – | – | Jurkat/IL2 reporter RLU at 50 nM, K562/OKT3/PD-L1 aAPC (CD28 (human) [5]): 500 RLU; Jurkat/IL2 reporter RLU at 50 nM, K562/OKT3/PD-L1 aAPC (PD-L1 (human) [6]): 500 RLU
CD80 H18Y/E35D/M47L IgV-Fc (inert) (Fc fusion) | – | – | Jurkat/IL2 reporter RLU at 50 nM, K562/OKT3/PD-L1 aAPC (CD28 (human) [5]): 2980 RLU; Jurkat/IL2 reporter RLU at 50 nM, K562/OKT3/PD-L1 aAPC (PD-L1 (human) [6]): 2980 RLU
CD80 E7D/E35D/M47I/L97Q IgV-Fc (inert) (Fc fusion) | – | – | Jurkat/IL2 reporter RLU at 50 nM, K562/OKT3/PD-L1 aAPC (CD28 (human) [5]): 1240 RLU; Jurkat/IL2 reporter RLU at 50 nM, K562/OKT3/PD-L1 aAPC (PD-L1 (human) [6]): 1240 RLU
CD80 E35D/A71D/L72V/R73H/E81K IgV-Fc (inert) (Fc fusion) | 282 RLU | 282 RLU | –
CD80 A26E/E35D/M47L/A71G IgV-Fc (inert) (Fc fusion) | 1750 RLU | 1750 RLU | –
CD80 E35D/D46E/M47V/L97Q IgV-Fc (inert) (Fc fusion) | – | – | Jurkat/IL2 reporter RLU at 50 nM, K562/OKT3/PD-L1 aAPC (CD28 (human) [5]): 1090 RLU; Jurkat/IL2 reporter RLU at 50 nM, K562/OKT3/PD-L1 aAPC (PD-L1 (human) [6]): 1090 RLU
CD80 Q33L/E35D/M47I IgV-Fc (inert) (Fc fusion) | – | – | Jurkat/IL2 reporter RLU at 50 nM, K562/OKT3/PD-L1 aAPC (CD28 (human) [5]): 423 RLU; Jurkat/IL2 reporter RLU at 50 nM, K562/OKT3/PD-L1 aAPC (PD-L1 (human) [6]): 423 RLU
CD80 E35D/M47I/T62S/L85Q IgV-Fc (inert) (Fc fusion) | 1570 RLU | 1570 RLU | –
